From patent US20240293518A1 (HEALTH RESEARCH, published 2024)
Values belong to the molecule of their own block, whether it stands above or below them.

Legend:
[1] = molecular target: ErbB2/delD2, human ErbB2 with deletion of ECD subdomain 2 (deletion of amino acids 196-320) (human) (UniProt P04626); test: ELISA; panel e; cell lysates; settings: ligand
[2] = molecular target: ErbB2/delD4, human ErbB2 with deletion of ECD subdomain 4 (deletion of amino acids 489-560) (human) (UniProt P04626); test: ELISA; panel e; cell lysates; settings: ligand
[3] = molecular target: T1, ErbB3/ECD-Fc, chimera of the ECD (Ser20-Thr643) of human ErbB3 and Fc (human, UniProt P21860 20-643); test: pull-down with protein G-sepharose, SDS-PAGE, silver stain
T1 construct: range 20-643; Bought from R&D Systems; also called human ErbB3/ECD-Fc; R&D Systems 348-RB-050; not shown: Fc (of human IgG1)
T1 sequence (P21860 20-643 limits assumed, change not shown): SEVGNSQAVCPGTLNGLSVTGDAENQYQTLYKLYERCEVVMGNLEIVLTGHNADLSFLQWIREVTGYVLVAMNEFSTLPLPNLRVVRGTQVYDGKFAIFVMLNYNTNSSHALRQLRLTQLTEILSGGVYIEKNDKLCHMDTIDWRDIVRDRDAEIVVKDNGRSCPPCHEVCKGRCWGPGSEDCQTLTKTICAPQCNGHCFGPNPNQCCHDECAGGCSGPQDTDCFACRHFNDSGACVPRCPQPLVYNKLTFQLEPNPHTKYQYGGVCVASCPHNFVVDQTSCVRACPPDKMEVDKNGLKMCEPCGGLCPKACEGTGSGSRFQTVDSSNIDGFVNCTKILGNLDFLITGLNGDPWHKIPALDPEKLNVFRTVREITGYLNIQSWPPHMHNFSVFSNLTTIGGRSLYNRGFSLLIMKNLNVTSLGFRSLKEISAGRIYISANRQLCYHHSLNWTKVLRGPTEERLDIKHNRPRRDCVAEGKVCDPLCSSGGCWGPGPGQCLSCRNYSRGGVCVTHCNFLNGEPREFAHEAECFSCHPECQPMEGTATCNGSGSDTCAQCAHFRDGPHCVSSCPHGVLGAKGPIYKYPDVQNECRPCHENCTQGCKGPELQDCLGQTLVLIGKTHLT
Experimental: (§1) Similar protein expression levels of ErbB2 and its mutants were detected in CHO-K1 cells transiently transfected with the plasmids (FIG. 1d). An equal amount of ErbB2 and its mutants, based on western blot quantification, were used in the same ELISA mentioned above. […] Thus, PEPD bound to D3, but D2 and D4, the latter in particular, may facilitate PEPD binding to ErbB2.
(§2) Immunoprecipitation. PEPD was incubated with ErbB2/ECD-Fc, ErbB3/ECD-Fc, ErbB4/ECD-Fc or Fc in binding buffer for 2 h at 37° C., followed by pull down with protein G-sepharose beads. […] For detection of direct and specific binding of PEPD or NRG-1 to ErbB2, ErbB3 or ErbB4, recombinant human PEPD or NRG-1 was incubated with recombinant human ErbB2/ECD-Fc, recombinant human ErbB3/ECD-Fc, recombinant human ErbB4/ECD-Fc or recombinant human Fc in 0.4 ml binding buffer. All solutions were incubated for 2 h at 37° C., followed by incubation with protein G-sepharose beads for 1 h at room temperature. […] In experiments using whole cell lysates, cells were lysed in M-PER buffer supplemented with a proteinase inhibitor mix (Roche Applied Science), and the lysates were incubated with a specific antibody overnight at 4° C., followed by pull down by protein G-agarose. […]

[4] = molecular target: T2, ErbB4/ECD-Fc, chimera of the ECD (Gln26-Arg649) of human ErbB4 and the Fc (human, UniProt Q15303 26-649); test: as above
T2 construct: range 26-649; Bought from R&D Systems; also called human ErbB4/ECD-Fc; R&D Systems 1131-ER-050; not shown: Fc (of human IgG1)
T2 sequence (looked up): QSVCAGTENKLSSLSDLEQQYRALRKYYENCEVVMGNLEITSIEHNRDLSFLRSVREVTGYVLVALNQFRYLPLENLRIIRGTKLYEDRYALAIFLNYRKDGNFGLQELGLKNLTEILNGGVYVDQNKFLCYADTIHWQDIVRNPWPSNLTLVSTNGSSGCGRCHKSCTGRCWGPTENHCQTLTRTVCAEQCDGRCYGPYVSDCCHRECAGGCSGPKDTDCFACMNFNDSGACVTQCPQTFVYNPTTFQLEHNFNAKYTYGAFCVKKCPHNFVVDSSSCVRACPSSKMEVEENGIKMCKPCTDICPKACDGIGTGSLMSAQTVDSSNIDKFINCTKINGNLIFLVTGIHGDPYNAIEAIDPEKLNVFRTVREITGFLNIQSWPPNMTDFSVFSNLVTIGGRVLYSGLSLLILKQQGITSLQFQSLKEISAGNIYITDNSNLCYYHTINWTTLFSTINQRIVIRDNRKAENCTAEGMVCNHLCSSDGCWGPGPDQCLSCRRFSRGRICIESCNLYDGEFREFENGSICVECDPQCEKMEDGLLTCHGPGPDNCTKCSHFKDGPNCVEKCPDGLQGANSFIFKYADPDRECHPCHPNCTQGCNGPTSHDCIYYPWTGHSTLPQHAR
Experimental: as §1, §2

[5] = molecular target: T3, ErbB2/delD4, human ErbB2 with deletion of ECD subdomain 4 (deletion of amino acids 489-560) (human, UniProt P04626 23-1255); test: ELISA, equal amounts of ErbB2 and mutants from lysates of transfected CHO-K1 cells
T3 construct: whole, on cells; Transiently expressed in CHO-K1 cells; also called pCMV6-XL5-ERBB2/delD4
Source text: as §1, with “Overexpression of human ErbB2 in CHO-K1 cells was readily achieved by gene transfection (FIG. 1b). […] Next, we removed the four ECD subdomains of human ErbB2 one at a time (FIG. 1d), using the ErbB2-expressing plasmid pCMV6-XL5-ERBB2 as a template. Similar” for “Similar”
(§3) ELISA-based measurement of PEPD and PEPD binding to ErbB2. To measure PEPD binding to human ErbB2 or its deletion mutants, ELISA plates were coated overnight at 4° C. with 100 μl/well of an ErbB2 antibody (binding to the cytoplasmic tail of ErbB2) at 10 μg/ml. After washing the wells three times with PBST, residual protein binding sites in the wells were blocked by incubation for 2 h at room temperature with 300 μl/well of 1% BSA in PBS. […] After three washes with PBST, 100 μl of a biotin-conjugated anti-His antibody (1:10,000 dilution; note that PEPD is His-tagged) was added to each well and incubated for 2 h at room temperature.

[6] = molecular target: T4, ErbB2/delD2, human ErbB2 with deletion of ECD subdomain 2 (deletion of amino acids 196-320) (human, UniProt P04626 23-1255); test: as above
T4 construct: whole, on cells; Transiently expressed in CHO-K1 cells; also called pCMV6-XL5-ERBB2/delD2
Source text: as §1, with “Overexpression of human ErbB2 in CHO-K1 cells was readily achieved by gene transfection (FIG. 1b). […] Next, we removed the four ECD subdomains of human ErbB2 one at a time (FIG. 1d), using the ErbB2-expressing plasmid pCMV6-XL5-ERBB2 as a template. Similar” for “Similar”
as §3

[7] = molecular target: T5, ErbB2 p95 fragment (minus ECD) (human, UniProt P04626 648-1255, limits assumed); test: co-immunoprecipitation with a PEPD antibody from lysates of APMA-treated CHO-K1/ErbB2 cells, western blot
T5 construct: domain: trans-membrane and intracellular regions (p95 fragment, minus ECD); Generated in CHO-K1/ErbB2 cells by 1 mM APMA for 0.25 h and tested in cell lysates; also called trans-membrane and intracellular regions of ErbB2
Experimental: FIG. 8. Data showing validation of a cell line used in the present disclosure, and lack of binding of PEPD to the transmembrane and intracellular regions of human ErbB2. (a) CHO-K1 cells were transiently transfected with an ErbB2-expressing plasmid (pCMV6-XL5-ERBB2) or the empty plasmid for 24 h. Human bladder cancer RT-4 cells and human breast cancer MCF-7 cells were untreated and were used as positive controls for ErbB1, ErbB3 and ErbB4. Cell lysates were analyzed by western blotting. GAPDH is a loading control. (b) CHO-K1 cells stably expressing ErbB2 (CHO-K1/ErbB2 cells) were treated with 1 mM APMA for 0.25 h. Cell lysates were then prepared and analyzed by western blotting (the first lane on the right). The same cell lysates were mixed with 1 μM PEPD, which were then incubated with a PEPD antibody or an isotype-matched IgG, pulled down with protein G-agarose, and analyzed by western blotting.
Immunoprecipitation. PEPD was incubated with ErbB2/ECD-Fc, ErbB3/ECD-Fc, ErbB4/ECD-Fc or Fc in binding buffer for 2 h at 37° C., followed by pull down with protein G-sepharose beads. The immunoprecipitates were washed with IP washing buffer and analyzed by western blotting. […] The immunoprecipitates were washed with IP washing buffer and analyzed by western blotting.

[8] = molecular target: T6, Human ErbB2, wild type, full length (human, UniProt P04626 23-1255); test: ELISA; ErbB2 captured from lysates of ErbB2-transfected CHO-K1 cells by an antibody to its cytoplasmic tail, His-tagged PEPD detected with anti-His
T6 construct: whole, on cells; Three sources: CHO-K1 cells transiently transfected with pCMV6-XL5-ERBB2, CHO-K1/ErbB2 cells expressing it stably, and BT-474 cells where it is endogenous; The ELISA and the immunoprecipitations used cell lysates; The other assays used living cells; also called WT-ErbB2; Her2
Source text: as §1, with “Overexpression of human ErbB2 in CHO-K1 cells was readily achieved by gene transfection (FIG. 1b). […] Next, we removed the four ECD subdomains of human ErbB2 one at a time (FIG. 1d), using the ErbB2-expressing plasmid pCMV6-XL5-ERBB2 as a template. Similar” for “Similar”
as §3

Molecule: Recombinant human PEPD (peptidase D, prolidase), wild type, 6×His tagged at the carboxy terminus (from UniProt P12955 1-493)
Kd [1]: 25.9 nM
Kd [2]: 372 nM

fold reduction of binding affinity against wild-type ErbB2 [5]: 51 fold
fold reduction of binding affinity against wild-type ErbB2 [6]: 3.5 fold
binding result [7]: no binding (tested: 1 µM PEPD)
Kd [8]: 7.3 nM
B1: Recombinant human PEPD (peptidase D, prolidase), wild type, 6×His tagged at the carboxy terminus (ligand)
chain: MAAATGPSFWLGNETLKVPLALFALNRQRLCERLRKNPAVQAGSIVVLQGGEETQRYCTDTGVLFLQESFFHWAFGVTEPGCYGVIDVDTGKSTLFVPRLPASHATWMGKIHSKEHFKEKYAVDDVQYVDEIASVLTSQKPSVLLTLRGVNTDSGSVCREASFDGISKFEVNNTILHPEIVESRVFKTDMELEVLRYTNKISSEAHREVMKAVKVGMKEYGLESLFEHYCYSRGGMRHSSYTCICGSGENSAVLHYGHAGAPNDRTIQNGDMCLFDMGGEYYSVASDITCSFPRNGKFTADQKAVYEAVLLSSRAVMGAMKPGDWWPDIDRLADRIHLEELAHMGILSGSVDAMVQAHLGAVFMPHGLGHFLGIDVHDVGGYPEGVERIDEPGLRSLRTARHLQPGMVLTVEPGIYFIDHLLDEALADPARASFLNREVLQRFRGFGGVRIEEDVVVIDSGIELLTCVPRTVEEIEACMAGCDKAFTPFSGPKHHHHHH
notes: Made in bacteria (pBAD/Thio-TOPO, without the N-terminal Thio) and purified on nickel; also called WT-PEPD; rhPEPD
binding result [3]: no binding (tested: PEPD 1 µM with 0.04 µM ErbB3/ECD-Fc)
binding result [4]: no binding (tested: PEPD 1 µM with 0.04 µM ErbB4/ECD-Fc)
